The text below walks through data of US20150366960A1.

As usually defined, the Kd is the free concentration of one partner at which half of the binding sites on the other are occupied at equilibrium, for simple one-to-one binding. Read a high Kd as lower affinity.

The target in test [1] is RSV-F protein (as used in the D25 competition binding assay) (respiratory syncytial virus, strain not stated). In words: competition ELISA on infected cells against biotin-labeled D25 at 100 ng/ml constant, A450 [cont'd) D].
The target is the same in test [2].
For test [3], the target named is RSV A2 F protein on untreated cells (pre-fusion form) (Human respiratory syncytial virus, strain A2) (UniProt P03420).
Test [4] shares this target. The source holds these as a separate data set.
The target of test [5] is SK-epitope: amino acids 195-228 of RSV A2 F protein (C212S) in the inhibitor loop of Ecballium elate (Human respiratory syncytial virus, strain A2 (insert); Ecballium elaterium (scaffold)).
Test [6] concerns the target HR1 construct containing amino acids 153-221 of RSV A2 F protein (Human respiratory syncytial virus, strain A2).
In test [7] the target is RSV A2 F protein on untreated cells (pre-fusion form) (Human respiratory syncytial virus, strain A2) (UniProt P03420). In words: cell-based or functional assay.
The target in test [8] is RSV-B F protein from strain 18537 (wild type) (Human respiratory syncytial virus, strain 18537 (subtype B)) (UniProt P13843).
Test [9] has the same target. The source holds these as a separate data set.
For test [10], the target named is MARM B2 F protein (RSV B 18537 F, L204V) (Human respiratory syncytial virus, D25-resistant mutant of strain 18537) (UniProt P13843).
Test [11] addresses MARM B1 F protein (RSV B 18537 F, N201D) (Human respiratory syncytial virus, D25-resistant mutant of strain 18537) (UniProt P13843).
Test [12] deals with RSV-B F protein from strain 18537 (wild type) (Human respiratory syncytial virus, strain 18537 (subtype B)) (UniProt P13843). In words: cell-based or functional assay.
The target in test [13] is MARM B2 F protein (RSV B 18537 F, L204V) (Human respiratory syncytial virus, D25-resistant mutant of strain 18537) (UniProt P13843). Kind of test: cell-based or functional assay.
The target in test [14] is MARM A1 F protein (RSV A2 F, N208Y) (Human respiratory syncytial virus, D25-resistant mutant of strain A2) (UniProt P03420). Kind of test: cell-based or functional assay.
Test [15] has as its target MARM B1 F protein (RSV B 18537 F, N201D) (Human respiratory syncytial virus, D25-resistant mutant of strain 18537) (UniProt P13843). In words: cell-based or functional assay.
Test [16] deals with MARM A1 F protein (RSV A2 F, N208Y) (Human respiratory syncytial virus, D25-resistant mutant of strain A2) (UniProt P03420).
Test [17] has the same target. This is another data set of the same source.
Test [18] has as its target MARM B2 F protein (RSV B 18537 F, L204V) (Human respiratory syncytial virus, D25-resistant mutant of strain 18537) (UniProt P13843). The source holds these as a separate data set.
Test [19] concerns the target MARM B1 F protein (RSV B 18537 F, N201D) (Human respiratory syncytial virus, D25-resistant mutant of strain 18537) (UniProt P13843). The source holds these as a separate data set.

Like-named read-outs stand apart in the source and are kept apart here.

In the case of anti-RSV-F antibody AM22, in test [1], the IC50 (read off the curve) stood at 2 mg/L.

With monoclonal antibody D25, the IC50 (read off the curve) in [2] is 0.6 mg/L; in test [3] it was 10 mg/L; in test [4], 0.1 mg/L; in [8] it was 0.07 mg/L. Also, the Kd was found to be 0.0585 nM in [5] and 1.9 nM in [6]. Further, the RSV microneutralization assay (antibody concentration able to neutralize) in test [7] is 1 µg/mL.

With motavizumab (antibody), the IC50 (read off the curve) in test [9] turned out to be 0.1 mg/L; in [10], 0.04 mg/L; in test [11], 0.06 mg/L; in test [16] it was 0.1 mg/L. For the same substance, the RSV microneutralization assay (antibody concentration able to neutralize) in [12], in test [13], in test [14] and in [15] was less than 100 ng/mL each time.

For the substance palivizumab (antibody), the IC50 (read off the curve) turned out to be 40 mg/L in test [17], 300 mg/L in [18] and 200 mg/L in test [19]. Also, the RSV microneutralization assay (antibody concentration able to neutralize) in test [13], in test [14] and in test [15] was 100000 ng/mL throughout.
